Among the data in patent publication US20090022663A1 (published 2009) are Kd, koff and kon values, retold here.

Test [1] concerns the target T1, purified recombinant 161P2F10B extracellular domain (Tag5-161P2F10B ECD, amino acids 46-875) (human, UniProt O14638 46-875).
T1 construct: also called full length ECD
The test can be described thus: SPR (BIAcore), MAb captured on chip, recombinant 161P2F10B injected, 1:1 fit.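 Also: purified human MAbs immobilised by capture on a CM5 chip surface, about 150 RU of antibody per cycle.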 In general terms: In SPR one partner is held on a chip, and binding of the other changes the refractive index at the surface.
Source text: Briefly, each purified human MAb is captured onto a CM5 sensor chip surface. On average approximately 150 RUs of each MAb is captured in every cycle.

The target in test [2] is T2, 161P2F10B variant 1 (human 161P2F10B), on the cell surface (human, UniProt O14638 1-875).
T2 construct: Cell surface pyrophosphatase/phosphodiesterase; also called 161P2F10B v.1; CD203c
In words: FACS titration on KU-812 cells, one site binding fit.
Procedure: At the end of the incubation, cells were washed and incubated with anti-hIgG-PE detection antibody for 45 min at 4° C. After washing the unbound detection antibodies, the cells were analyzed by FACS. MFI values of each point were obtained using CellQuest Pro software and were used for the affinity calculation using Graphpad Prism software and the one site binding (hyperbola) equation.

B1: H16-9.65 (antibody, V domains shown)
VH: QVQLVESGGGVVQPGRSLRLSCAASGFTFSSYGMHWVRQAPGKGLEWVATIWFDGSNGYYADSVKGRFTISRDNSKNTLYLQMNSLRAEDTAVYYCARDSSGSYDHFDYWGQGTLVTVSS
VL: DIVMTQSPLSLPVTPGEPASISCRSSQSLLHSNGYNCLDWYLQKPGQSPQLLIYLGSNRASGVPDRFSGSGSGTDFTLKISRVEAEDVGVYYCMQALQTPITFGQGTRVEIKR
notes: Fully human XenoMouse MAb; Entries hold the leader (or part of it) and a portion of the constant region
Consider B1, for which, in test [1], the Kd (usually the free concentration of one partner at which half of the binding sites on the other are occupied at equilibrium, for simple one-to-one binding) was 5 nM; the koff (as a rule, a measure of how fast the partners let go of each other) came to 0.000464 s⁻¹; the kon – broadly, the second-order rate constant of association – turned out to be 93700 M⁻¹ s⁻¹.

B2: Ha16-1(3,5)56 (antibody, V domains shown)
VH: RCRLVESGAEVKKPGESLKISCKGSGYRFTSYWIGWVRQMPGKGLEWMGIIYPGDSDTRYSPSFQGQVTISADKSISTAYLQWRSLKASDTAMYYCARKDYYYYVMDVWGQGTTVTVSS
VL: DTISCTGTSSDVGNYNYVSWYQQHPGKAPKLMIYAVNNRPSGVSNRFSGSKSGNTASLTISGLQAEDEADYYCSSYTSSRNLVVFGGGTKLTVLG
As for B2, the Kd in test [2] stood at 0.019 nM. In addition, in test [1], the Kd came to 14.5 nM, the koff is 0.000593 s⁻¹ and the kon was determined as 40800 M⁻¹ s⁻¹.

B3: Ha16-1(3,5)19 (antibody, V domains shown)
VH: EVQLVQSGAEVKKPGESLKISCKGSGYRFTSYWIGWVRQMPGKGLEWMGIIYPGDSDTRYSPSFQGQVTISADKSISTAYLQWSSLKASDTAMYYCARKDYYYYAMDVWGQGTTVTVSS
VL: QSALTQPASVSGSPGQSITISCTGTSSDVGRYNYVSWYQQHPGQAPKLMIYGISIRPSGVSPRFSGSKSGNTASLTISGLQAEDEADYYCSSHTSNSTLVVFAGGTKLTVLG
notes: Entries hold part of the leader and a portion of the constant region
On to B3, for which, in test [1], the equilibrium dissociation constant (Kd) was found to be 1.68 nM, the koff worked out at 8.4e-05 s⁻¹ and the kon was 50000 M⁻¹ s⁻¹.

B4: Ha16-1(3,5)42 (antibody, V domains shown)
VH: EVQLVQSGAEVKKPGESLKISCKGSGYRFTSYWIGWVRQMPGKGLEWMGIIYPGDSDTRYSPSFQGQVTISADKSISTAYLQWSSLKASDTAMYYCARKDYYYYSMDVWGQGTTVTVSS
VL: QSALTQPASVSGSPGQSITISCTGTSSDVGRFNYVSWYQQRPGKAPKLMIYAVNIRPSGVSNRFSGSKSGNTASLTISGLQAEDEAGYYCSSYTSSSTLLVFGGGTKLTVLG
notes: Entries hold the leader (or part of it) and a portion of the constant region
For B4, in test [1], the Kd turned out to be 4.3 nM, the koff turned out to be 0.000205 s⁻¹ and the kon amounted to 47600 M⁻¹ s⁻¹.

B5: H16-1(3,5)5 (antibody, V domains shown)
VH: EVQLVQSGAEVKKPGESLKISCKGSGYRFTSYWIGWVRQMPGKGLEWMGIIYPGDSDTRYSPSFQGQVTISADKSISTAYLQWSSLKASDTAMYYCARKDYYYYTMDVWGQGTTVTVSS
VL: QSALTQPASVSGSPGQSITISCTGTSSDVGGYNYVSWYQQHPGKAPKLMIYAVSNRPSGVSNRFSGSKSGNTASLTISGLQAEDEADYYCSSYTISRILVVFGGGTKLTVLG
notes: Entries hold the leader (or part of it) and a portion of the constant region; also called Ha16-1(3,5)5
Take B5: in test [1], the Kd is 7.2 nM, the koff was determined as 4.76e-05 s⁻¹ and the kon came to 6600 M⁻¹ s⁻¹.

B6: H16-9.10 (antibody, V domains shown)
VH: LLESGPGLVKPSQTLSLTCAISGDSVSSNSAAWNWIRQSPSRGLEWLGRTYYRSKWYNAYAVSVKSRMTINPDTSKNQFSLQLNSVTPEDTAVYYCAREAGGWFDPWGQGTLVTVSS
VL: DIQMTQSPSSVSASVGDRVTITCRASQGIRSWLAWYQQKPGKAPKLLIYAASSLQSGVPSRFSGSGSGTDFTLTISSLQPEDFATYYCQQANSFPPTFGGGTKVEIKR
notes: also called Ha16-9.10
In test [2], B6 returned a Kd of 0.5 nM. In addition, in test [1], the Kd was 7.4 nM, the koff amounted to 0.000442 s⁻¹ and the kon was 59500 M⁻¹ s⁻¹.

B7: H16-9.33 (antibody, V domains shown)
VH: EVQLLESGPGLVKPSQTLSLTCAISGDSVSSNSAAWNWIRQSPSRGLEWLGRTYYRSKYYNAYPVSVKSRITINPDTSKNQFSLQLNSVTPEDTAVYYCAREAGGWFDPWGQGTLVTVSS
VL: DIQMTQSPSSVSASVGDRVTITCRANQGIRSWLAWYQQKPGKAPKLLIYAASSLQSGVPSRFSGSGSGTDFTLTISSLQPEDFATYYCQQANSFPPTFGGGTKVEIKR
In the case of B7, in test [1], the Kd came to 3.9 nM, the koff was determined as 0.000257 s⁻¹ and the kon was 66300 M⁻¹ s⁻¹.

B8: H16-7.213 (antibody, V domains shown)
VH: WGLSEVSCKASGYTFTGYYMHWVRQAPGQGLEWMGWINPNSGGTNYAQKFQGRVTMTRDTSISTAYMELSRLRSDDTAVYYCARELRYFGWLLSSLDYWGQGTLVTVSS
VL: DIQMTQSPSSLSASVGDRVTITCRASQSISSYLNWFQQKPGKAPKLLIYAASSLQSGVPSRFSGSESGTDFTLTISSLQPEDFATYSCQQSYSFPLTFGGGTKVEIKR
B8: in test [1], the Kd stood at 3.9 nM, the koff was 0.000509 s⁻¹ and the kon amounted to 129000 M⁻¹ s⁻¹.

B9: H16-9.69 (antibody, V domains shown)
VH: WGLSEVSCKASGYTFTSYDIHWVRQATGQGLEWMGWMNPNSGNTVYAQKFQGRVTMTRNTSISTAYMELSSLRSEDTAVYYCARTVLLWPFDYWGQGTLVTVSS
VL: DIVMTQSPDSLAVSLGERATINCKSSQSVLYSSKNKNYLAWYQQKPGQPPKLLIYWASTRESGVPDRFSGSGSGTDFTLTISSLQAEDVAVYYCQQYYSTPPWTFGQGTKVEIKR
As for B9, the Kd in test [2] came to 0.27 nM. Moreover, in test [1], the Kd is 4 nM, the koff worked out at 0.000186 s⁻¹ and the kon was determined as 42400 M⁻¹ s⁻¹.

B10: H16-1.93 (antibody, V domains shown)
VH: QVQLVQSGAEVKKPGASVKVSCKASGYTFTSYGISWVRQAPGQGLEWMGWISAYNGNTYYAQKLQARVTMTTDTSTSTAYMELRSLRSDDTAVYYCARDGYSSSWSLLHYYGMDVWGQGTTVTVSS
VL: DIQMTQSPSSLSASVGDRITITWRSSQGIYNSLAWYQQKPGKVPKLLIYAASTLHSGVPSRFSGSGSGTDFTLTISSLQPEDVATYYCQKYNSAPFTFGPGTKVDIKR
notes: Entries hold the leader (or part of it) and a portion of the constant region; also called ATCC PTA-7449
B10 returned a Kd in test [2] of 0.09 nM.

B11: H16-7.8 (antibody, V domains shown)
VH: QVQLQESGPGLVKPSQTLSLTCTVSGGSISSGGYYWSWIRQHPGKGLEWIGIIYYSGSTYYNPSLKSRVTISVDTSKNQFSLKLNSVTAADTAVFYCARVAIVTTIPGGMDVWGQGTTVTVSS
VL: EIVLTQSPDFQSVTPKEKVTITCRASQSIGISLHWYQQKPDQSPKLLIKYASQSFSGVPSRFSGSGSGTDFTLTINSLEAEDAATYYCHQSRSFPWTFGQGTKVEIKR
notes: Entries hold the leader and a portion of the constant region
For the molecule B11, the Kd in test [2] was 0.07 nM. Moreover, in test [1], the Kd is 18 nM, the koff was 0.00063 s⁻¹ and the kon turned out to be 35000 M⁻¹ s⁻¹.

B12: H16-9.44 (antibody, V domains shown)
VH: LSLTCTVSGGSISSYYWSWIRQSAGKGLEWIGRIYTGVSTNYNPSLKSRVTMSVDTSKNQFSLKLSSVTAADTAVYYCARDYYDSSGYYPFDYWGQGTLVTVSS
VL: DIQMTQSPSSLSASVGDRVTISCRASQGISNYLAWFQQKPGKAPKSLIYAASSLENGVPSKFSGSGSGTDFTLTISSLQPEDFATYYCQQYNSSPFTFGPGTKVDIRR
notes: also called Ha16-9.44
With B12, the Kd in test [2] was 1.27 nM. In addition, in test [1], the Kd was determined as 0.76 nM, the koff turned out to be 0.000132 s⁻¹ and the kon worked out at 174000 M⁻¹ s⁻¹.

B13: Ha16-1(1)11 (antibody, V domains shown)
VH: GPGLVKPSETLSLTCTVSGGSISSYYWSWIRQPPGKGLEWIGYIYYSGSTNYNPSLKSRVTISVDTSKNQFSLKLSSVTAADTAVYYCARAVSYYYYGMDVWGQGTTVTVSS
VL: DIQMTQSPSSLSASVGDRVTITCRTIQNINSYLNWYQQRPGKAPKLLIYATSSLQSGVPSRFSGSGSGTDFTLTISSLQPEDFATYYCQQTYSTLFTFGPGTKVDIKR
notes: also called ATCC PTA-7450
B13: in test [2], binding was put at a Kd of 0.004 nM. Moreover, in test [1], the Kd is 21.7 nM, the koff amounted to 0.00143 s⁻¹ and the kon turned out to be 65800 M⁻¹ s⁻¹.

B14: H16-1.67 (antibody, V domains shown)
VH: VESGPGLVKPSQTLSLTCTVSGGSINSFGYYWSWIRQYPGKGLEWIGFLYFTGSTYYNPSLKSRVTISVDTSKSQFSLKLSSVTAADTAVYYCARAGTMVRGAHYYGMDVWGQGTTVTVSS
VL: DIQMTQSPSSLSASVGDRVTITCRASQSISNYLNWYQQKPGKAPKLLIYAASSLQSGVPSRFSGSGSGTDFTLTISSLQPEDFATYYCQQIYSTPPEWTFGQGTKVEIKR
On to B14, for which the Kd in test [2] is 0.02 nM. Moreover, in test [1], the Kd was 43 nM, the koff is 0.0007 s⁻¹ and the kon stood at 16000 M⁻¹ s⁻¹.

B15: Ha16-1(3,5)18 (antibody, IgG1, V domains shown)
VH: GPGLVKPSETLSLTCTVPGGSIRSYFWSWIRQPAGKGLEWIGRFYFSGSTNYNPSLKSRVTMSVDTSKNQFSLKLSSVTAADTAVYYCARDYGDHYYYYGMDVWGQGTTVTVSS
VL: VLTQPPSVSAAPGQKVTISCSGSSSNIGNNYVSWYQQFPGTAPKFLIYDNNKRSSGIPDRFSGSKSGTSATLGITGLQTGDEADYYCGTWDSSLSAVIFGGGTKLTVL
notes: The limits of VH (1-114) and VL (1-108) are stated in CLM-00001; the entries also hold a portion of the constant region; also called Ha16-1(3, 5)18.1; ATCC PTA-7452
As to B15, binding in test [2] was put at a Kd of 0.047 nM. Moreover, in test [1], the Kd amounted to 28 nM, the koff amounted to 0.00062 s⁻¹ and the kon turned out to be 22000 M⁻¹ s⁻¹.

B16: Ha16-1(3,5)36 (antibody, V domains shown)
VH: EVQLVESGPGLVKPSETLSLTCTVSGGSISSSSYYWGWIRQPPGKGLEWIGSMYYSGSTYHNPSLKSRVIISVDTSKNQFSLKLSSVTAADTAVYYCARHYITVAGIFDYWGQGTLVTVSS
VL: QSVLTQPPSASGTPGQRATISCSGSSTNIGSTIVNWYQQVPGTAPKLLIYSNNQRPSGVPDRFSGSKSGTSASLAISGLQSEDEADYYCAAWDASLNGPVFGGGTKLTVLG
Consider B16, for which, in test [1], the Kd was 8.7 nM, the koff came to 0.00046 s⁻¹ and the kon stood at 52900 M⁻¹ s⁻¹.

B17: Ha16-1(3,5)27.1 (antibody, V domains shown)
VH: LVESGAEVKKPGESLKISCKGSGYRFTSYWIGWVRQMPGKGLEWMGIIYPGDSDTRYSPSFQGQVTISADKSISTAYLQWSSLKASDTAMYYCARKDYYYYSMDVWGQGTTVTVSS
VL: GQSALTQPASVSGSPGQSITISCTGTSSDVGGYNYVSWYQQHPGQAPKLLIYGVNIRPSGVSTRFSGSKSGNTASLTISGLQAEDEADYYCSSYTRSSILVVFAGGTKLTVLG
notes: VH entry holds part of the leader; both hold a portion of the constant region
Consider B17, for which the Kd in test [2] turned out to be 0.014 nM. In test [1], the Kd was found to be 4.8 nM, the koff came out at 0.000177 s⁻¹ and the kon amounted to 36900 M⁻¹ s⁻¹.

B18: Ha16-1(1)23 (antibody, V domains shown)
VH: VESGGGVVQPGRSLRLSCAASGFTFRSYGMHWVRQAPGKGLEWVAVIWSDGSNKYYADSVKGRFTISRDNSKNTLYLQMNSLRAEDTAVYYCAREGYYGSGSYYYYYGMDVWGQGTTVTVSS
VL: QAGLTQPPSVSKGLRQTATLTCTGNSNNVGTQGAAWLQQHQGHPPKLLSYRNNNRPSGISERLSASTSGNTASLTITGLQPEDEADYYCSAWDSSLSAVVFGGGTKLTVLG
Take B18: in test [1], the Kd was 24 nM, the koff amounted to 0.00088 s⁻¹ and the kon turned out to be 36000 M⁻¹ s⁻¹.

B19: H16-1.68 (antibody, V domains shown)
VH: EVHLVESGGGVVQPGRSLRLSCAASGFTFRSYGMHWVRQAPGKGLEWVAVIWYDGSNKYYADSVKGRFTISRDNSKNTLYLQMNSLRAEDMAMYYCARSRITIFGVVHYGMDVWGQGTTVTVSS
VL: TQLTQSPSSLSASVGDRVTITCRASQNINSYLNWYQQKPGKAPKLLIYAASSLQSGVPSRFSGSGSGTDFTLTISSLQPEDFTTYYCQQSYSSAPTFGGGTKLEIKR
As for B19, in test [1], the Kd turned out to be 2.3 nM, the koff turned out to be 0.000244 s⁻¹ and the kon was 106000 M⁻¹ s⁻¹.
